Target: SARS-CoV-2 spike receptor-binding domain (RBD), residues 333-529 (SARS-CoV-2, UniProt P0DTC2)
Assay: crystal structure

B1: ADI-62113 Fab (Fab, V domains shown)
VH: QVQLQQSGAEVKKPGASVKLSCKASGYTFSVFPIHWVRQAPGQRLEWMGWHNAGDGDTKYSQKFQGRVTIISDTSASTAYMELSSLKSEDTAVYYCARAARPYYDRRGYFFRADYFQHWGQGTLVTVSS
VL: DIQVTQSPSSLSASVGDRVTITCQASQDIKNSLNWYQQKPGKAPKLLISDASNLETGVPSRFSGNGSGTDFTFTISSLQPEDIATYYCQQYDNLITFGPGTKVEIK
binding result: binds
